What was measured:
[1] = tested on: NHDF (normal human dermal fibroblast) cultures; experiment: antioxidative capacity (DCFH fluorescence after H2O2 stress) in NHDF cultures; format: cell-based; details: 24 h treatment, H2O2-induced radicals, protein concentration 0.001%, three independent runs, effect seen in two of three runs
Description: The reference substances used were vitamin E (alpha-tocopheryl acetate), vitamin C (Mg ascorbyl phosphate) and quercetin. The test cells used were normal dermal connective tissue cells (fibroblasts) since these produced good signal strengths in the evaluation method. To ascertain the antioxidative properties of the solutions, the NHDF (normal human dermal fibroblast) cultures were sown out on 48-well culture vessels and cultivated until the culture surface was completely covered. The investigations were then carried out with these random cultures. Firstly, the cultures were treated for 24 h with the test solutions. […] The plates containing the cells were inserted into a fluorescence reader and the measurement was started with an introductory phase without stress. […] Low fluorescence thus indicates high antioxidative capacity. […] The y axis here represents the oxidative stress in the cells as the fluorescence which is emitted when free radicals react with the intracellular dye DCFH. […] All fluorescence values were corrected with the protein contents of the cultures following conclusion of the measurements (ascertained with Coomassie stain). This compensates for fluctuations in the cell number, which would also cause fluctuations in the fluorescence (on account of the varying amount of dye). […]

[2] = skin penetration of lactic acid: pH of pigskin after tape stripping; format: in vitro ADME, pig; details: for pH of the skin in the lower skin layers (after stripping) versus control without hydrophobin: hydrophobin coating and subsequent lactic acid treatment; for pH 1x stripping / pH 2x stripping / pH 3x stripping / pH without stripping: pigskin pretreated with 100 μl 0.1% hydrophobin 1.5 hours, then 15% strength lactic acid 10 minutes; for pH 1x stripping: after 1 Corneofix strip; for pH 2x stripping: after 2 Corneofix strips; for pH 3x stripping: after 3 Corneofix strips; for pH without stripping: mean of triple measurements
Protocol: • 1. Preparation of a 1% strength solution of hydrophobin A and B in Millipore water Dissolution of the hydrophobin by vigorous stirring on a magnetic stirrer at 900 rpm for 45 minutes. • 2. Preparation of 1 ml of a ready-to-use hydrophobin solution: • 800 μl Millipore water +100 μl 10-fold buffer (500 mM Tris, 10 mM CaCl2, pH 8) +100 μl hydrophobin solution
This corresponds to a 0.1% strength hydrophobin solution in 50 mM Tris 1 mM CaCl2 and pH 8
• 1. Frozen and dehaired pigskin (not blanched) was defrosted at room temperature. Marking of the application fields measuring ca. 2 cm×2 cm Application of the following solutions (stripping): • control (without solution)
• 2. Incubation of the solutions for 1.5 hours at RT
In order to remove any buffer salts present, all of the application fields were rinsed with 2×500 μl of Millipore water and dabbed with a paper towel. • 3. Application of in each case 100 μl of 15% strength lactic acid to all application fields
Incubation of the solutions for 10 minutes at room temperature
Removal of the excess lactic acid using a paper towel
Measurement of the pH of the pigskin on the respective application fields. Triple measurements were carried out and the mean was used. The water present after a pH measurement was dabbed off using a paper towel. A skin pH meter PH 905 from Courage & Khazaka was used.
Removal of the uppermost loose cell layer using a Corneofix adhesive strip from Courage & Khazaka
Renewed measurement of the pH
Overall, a Corneofix adhesive strip was used 3 times and the pH measured thereafter.

Row | Molecule | oxidative stress / antioxidative potential (DCFH fluorescence) [1] | pH of the skin in the lower skin layers (after stripping) versus control without hydrophobin [2] | pH 1x stripping [2] | pH 2x stripping [2] | pH 3x stripping [2] | pH without stripping [2]
1 | CC(=O)Oc1c(C)c(C)c2c(c1C)CCC(C)(CCC[C@H](C)CCC[C@H](C)CCCC(C)C)O2 (stereo partly drawn) [Tocopheryl acetate, alpha-tocopheryl acetate] | no antioxidative potential | – | – | – | – | –
2 | hydrophobin B: fusion hydrophobin, SEQ ID NO: 26 from WO2007/14897; SEQ ID NO: 36 herein (yaad40-Xa-dewA-his) (protein, fusion protein yaad40-Xa-dewA-his) MAQTGTERVKRGMAEMQKGGVIMDVINAEQAKIAEEAGAVIEGRMRFIVSLLAFTAAATATALPASAAKNAKLATSAAFAKQAEGTTCNVGSIACCNSPAETNNDSLLSGLLGAGLLNGLSGNTGSACAKASLIDQLGLLALVDHTEEGPVCKNIVACCPEGTTNCVAVDNAGAGTKAEGSHHHHHH | – | lower pH | 2.89 | 3.08 | 3.26 | 2.64
3 | hydrophobin A: fusion hydrophobin, SEQ ID NO: 20 from WO2007/14897 and herein (yaad-Xa-dewA-his) (protein, basf-yaad-Xa-dewA-his fusion of Bacillus subtilis yaaD and N-terminal factor Xa proteinase cleavage site and Aspergillus nidulans hydrophobin dewA and his6) MAQTGTERVKRGMAEMQKGGVIMDVINAEQAKIAEEAGAVAVMALERVPADIRAAGGVARMADPTIVEEVMNAVSIPVMAKARIGHIVEARVLEAMGVDYIDESEVLTPADEEFHLNKNEYTVPFVCGCRDLGEATRRIAEGASMLRTKGEPGTGNIVEAVRHMRKVNAQVRKVVAMSEDELMTEAKNLGAPYELLLQIKKDGKLPVVNFAAGGVATPADAALMMQLGADGVFVGSGIFKSDNPAKFAKAIVEATTHFTDYKLIAELSKELGTAMKGIEISNLLPEQRMQERGWRSIEGRMRFIVSLLAFTAAATATALPASAAKNAKLATSAAFAKQAEGTTCNVGSIACCNSPAETNNDSLLSGLLGAGLLNGLSGNTGSACAKASLIDQLGLLALVDHTEEGPVCKNIVACCPEGTTNCVAVDNAGAGTKAEGSHHHHHH | – | lower pH | 3.08 | 3.39 | 3.63 | 2.62
